In PMC4490372, “Architecture of TFIIIC and its role in RNA polymerase III pre-initiation complex assembly” (Nature Communications, 2015):

Tests used:
[1] = target: T1, τ131 (Tfc4), τA subunit of endogenous S. cerevisiae TFIIIC (S. cerevisiae, UniProt P33339 1-1025); experiment: cross-linking; XL-MS: purified endogenous TFIIIC (30 μg, 1 μg/μl) cross-linked with H12/D12 DSS to 2 mM, 40 min at 37 °C; ld-score >25; conditions: both partners purified
T1 construct: τ131 (Tfc4), subunit of S. cerevisiae TFIIIC, endogenous subunit in the purified complex; Endogenous subunit; source: endogenous, purified from S. cerevisiae strain SC2342 as part of TFIIIC (TAP tag on τ60)
T1 sequence (looked up): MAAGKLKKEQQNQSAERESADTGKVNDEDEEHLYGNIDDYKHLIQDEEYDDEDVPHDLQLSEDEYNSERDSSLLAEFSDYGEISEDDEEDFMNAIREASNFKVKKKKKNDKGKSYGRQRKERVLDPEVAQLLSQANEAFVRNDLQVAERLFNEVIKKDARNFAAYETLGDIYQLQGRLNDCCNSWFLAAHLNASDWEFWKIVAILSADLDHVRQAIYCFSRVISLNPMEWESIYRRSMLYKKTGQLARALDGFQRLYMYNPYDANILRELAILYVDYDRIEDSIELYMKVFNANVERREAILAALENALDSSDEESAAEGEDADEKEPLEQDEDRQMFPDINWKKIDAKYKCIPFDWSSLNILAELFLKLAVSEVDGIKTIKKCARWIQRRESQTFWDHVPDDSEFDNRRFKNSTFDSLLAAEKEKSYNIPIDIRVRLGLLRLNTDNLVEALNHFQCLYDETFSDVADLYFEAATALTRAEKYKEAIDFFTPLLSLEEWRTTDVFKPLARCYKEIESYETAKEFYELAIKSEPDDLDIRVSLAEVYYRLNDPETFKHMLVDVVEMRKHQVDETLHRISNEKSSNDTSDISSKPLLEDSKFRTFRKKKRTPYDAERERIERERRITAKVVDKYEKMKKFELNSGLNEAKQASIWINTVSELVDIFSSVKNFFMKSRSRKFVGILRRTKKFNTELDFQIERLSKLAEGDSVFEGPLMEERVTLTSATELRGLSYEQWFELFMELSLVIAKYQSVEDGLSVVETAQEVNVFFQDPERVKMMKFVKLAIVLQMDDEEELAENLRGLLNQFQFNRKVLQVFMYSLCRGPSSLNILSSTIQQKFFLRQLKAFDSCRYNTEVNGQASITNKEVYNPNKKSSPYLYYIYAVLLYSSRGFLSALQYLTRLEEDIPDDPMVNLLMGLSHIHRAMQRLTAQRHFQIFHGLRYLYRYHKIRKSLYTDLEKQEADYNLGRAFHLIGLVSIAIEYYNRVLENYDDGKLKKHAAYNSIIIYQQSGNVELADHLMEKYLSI

[2] = target: T2, τ138 (Tfc3), τB subunit of endogenous S. cerevisiae TFIIIC (S. cerevisiae, UniProt P34111 1-1160); experiment: as above; conditions: both partners purified
T2 construct: τ138 (Tfc3), subunit of S. cerevisiae TFIIIC, endogenous subunit in the purified complex; source: endogenous, purified from S. cerevisiae strain SC2342 as part of TFIIIC (TAP tag on τ60)
T2 sequence (looked up): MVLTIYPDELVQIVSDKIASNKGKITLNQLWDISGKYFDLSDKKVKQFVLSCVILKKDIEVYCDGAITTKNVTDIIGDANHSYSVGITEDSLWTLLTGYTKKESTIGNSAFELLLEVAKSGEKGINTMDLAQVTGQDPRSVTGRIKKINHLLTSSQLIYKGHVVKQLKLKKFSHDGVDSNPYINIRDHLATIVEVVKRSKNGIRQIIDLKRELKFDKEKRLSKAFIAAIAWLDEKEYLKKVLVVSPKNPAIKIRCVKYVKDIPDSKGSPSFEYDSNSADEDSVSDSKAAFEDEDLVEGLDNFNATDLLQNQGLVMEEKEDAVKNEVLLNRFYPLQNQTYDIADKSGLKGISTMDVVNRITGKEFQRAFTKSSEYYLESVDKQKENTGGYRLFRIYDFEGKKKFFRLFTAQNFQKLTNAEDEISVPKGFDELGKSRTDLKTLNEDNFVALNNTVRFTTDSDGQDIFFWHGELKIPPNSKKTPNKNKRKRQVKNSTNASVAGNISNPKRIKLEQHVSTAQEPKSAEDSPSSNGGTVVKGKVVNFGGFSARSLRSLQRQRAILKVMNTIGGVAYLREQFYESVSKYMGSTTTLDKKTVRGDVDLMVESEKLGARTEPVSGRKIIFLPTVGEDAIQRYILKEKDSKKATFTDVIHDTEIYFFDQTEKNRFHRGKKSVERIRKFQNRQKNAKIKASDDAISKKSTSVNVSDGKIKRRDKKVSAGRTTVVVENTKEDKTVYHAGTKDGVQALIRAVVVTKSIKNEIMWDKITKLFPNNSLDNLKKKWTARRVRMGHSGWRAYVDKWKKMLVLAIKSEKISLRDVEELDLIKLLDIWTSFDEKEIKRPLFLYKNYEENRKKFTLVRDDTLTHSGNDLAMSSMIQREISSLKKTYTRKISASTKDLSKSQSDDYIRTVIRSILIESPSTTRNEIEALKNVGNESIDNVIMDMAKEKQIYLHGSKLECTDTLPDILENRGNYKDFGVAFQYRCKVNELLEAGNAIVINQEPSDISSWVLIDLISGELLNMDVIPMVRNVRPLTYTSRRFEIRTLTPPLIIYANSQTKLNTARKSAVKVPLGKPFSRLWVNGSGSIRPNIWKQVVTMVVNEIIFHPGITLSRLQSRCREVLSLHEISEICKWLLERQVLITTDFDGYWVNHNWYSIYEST

- binding result [1]: binds
- binding result [2]: binds
B1: τ95 (Tfc1), τA subunit of endogenous S. cerevisiae TFIIIC (natural protein, UniProt P32367 1-649, looked up)
chain: MPVEEPLATLSSIPDSSADQAPPLIADEFTLDLPRIPSLELPLNVSTKHSSIQKAIKMCGGIEKVKEAFKEHGPIESQHGLQLYLNDDTDSDGSKSYFNEHPVIGKRVPFRDESVILKVTMPKGTLSKNNNSVKDSIKSLKDSNKLRVTPVSIVDNTIKFREMSDFQIKLDNVPSAREFKSSFGSLEWNNFKSFVNSVPDNDSQPQENIGNLILDRSVKIPSTDFQLPPPPKLSMVGFPLLYKYKANPFAKKKKNGVTEVKGTYIKNYQLFVHDLSDKTVIPSQAHEQVLYDFEVAKKTKVYPGTKSDSKFYESLEECLKILRELFARRPIWVKRHLDGIVPKKIHHTMKIALALISYRFTMGPWRNTYIKFGIDPRSSVEYAQYQTEYFKIERKLLSSPIVKKNVPKPPPLVFESDTPGGIDSRFKFDGKRIPWYLMLQIDLLIGEPNIAEVFHNVEYLDKANELTGWFKELDLVKIRRIVKYELGCMVQGNYEYNKYKLKYFKTMLFVKESMVPENKNSEEGMGVNTNKDADGDINMDAGSQMSSNAIEEDKGIAAGDDFDDNGAITEEPDDAALENEEMDTDQNLKVPASIDDDVDDVDADEEEQESFDVKTASFQDIINKIAKLDPKTAETMKSELKGFVDEVDL
notes: τ95 (Tfc1), subunit of S. cerevisiae TFIIIC, endogenous subunit in the purified complex; source: endogenous, purified from S. cerevisiae strain SC2342 as part of TFIIIC (TAP tag on τ60)
